Series [1] has as its system Saccharomyces cerevisiae. Description: protein stability index of tFT-peptide fusion (C-terminal peptide) (PSI (0-1 scale)); higher = more stable (slower turnover). As to the method:
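MPS profiling in S. cerevisiae of the tFT-X12 degron library: putative degron peptides plus stable controls, 12 aa, fused to the C-terminus of a sfGFP-mCherry timer. Cells are FACS-sorted into 8 mCherry/sfGFP bins and deep-sequenced. PSI runs from 0 (unstable) to 1 (stable). Backgrounds are wild type, das1Δ and doa10Δ at 30 °C, and wild type, das1Δ, cdc34-1 and cdc53-1 at 37 °C; 2-3 technical replicates each.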

Series [2] concerns Saccharomyces cerevisiae. Described as above. Conditions: genetic background: wild type; temperature: 30 C.
[3] abbreviates: genetic background: cdc34-1, temperature: 37 C.
[4] abbreviates: genetic background: cdc53-1, temperature: 37 C.
Where [5] appears, read: genetic background: das1 deletion, temperature: 30 C.
[6] abbreviates: genetic background: das1 deletion, temperature: 37 C.
The mark [7] stands for this setting: genetic background: doa10 deletion, temperature: 30 C.
Where [8] appears, read: genetic background: wild type, temperature: 30 C.
[9] abbreviates: genetic background: wild type, temperature: 37 C.

± gives the standard deviation of the averaged measurements.

Consider 17 sequences from the supplement of paper PMC10724198.
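Also: PSI is a weighted mean of sequencing reads over stability bins, variants kept only with over 10 reads, mCherry proximal and sfGFP distal, peptide attached via GGGS linker.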

On to VVPWLGYVSCFS, for which the protein stability index amounted to 0.452 ± 0.031 in the series on Saccharomyces cerevisiae [1] (setting [3]); 0.487 ± 0.027 in the series on Saccharomyces cerevisiae [1] (setting [4]); 0.357 ± 0.029 in the series on Saccharomyces cerevisiae [1] (setting [5]); 0.521 ± 0.0067 with Saccharomyces cerevisiae [1] (setting [6]); 0.324 ± 0.0094 with Saccharomyces cerevisiae [1] (setting [7]); 0.366 ± 0.032 in the series with Saccharomyces cerevisiae [1] (setting [8]). The protein stability index was determined as 0.5026 ± 0.0044 with Saccharomyces cerevisiae [1] (setting [9]) and 0.465 ± 0.041 with Saccharomyces cerevisiae [2].
On to VVRAVLCVCASV, for which the protein stability index with Saccharomyces cerevisiae [1] (setting [3]) is 0.4577 ± 0.0025; in the series on Saccharomyces cerevisiae [1] (setting [4]) it was 0.489 ± 0.0069; in the series with Saccharomyces cerevisiae [1] (setting [5]), 0.409 ± 0.028; with Saccharomyces cerevisiae [1] (setting [6]), 0.518 ± 0.0019; with Saccharomyces cerevisiae [1] (setting [7]), 0.387 ± 0.012; with Saccharomyces cerevisiae [1] (setting [8]), 0.413 ± 0.021. Also, the protein stability index amounted to 0.489 ± 0.018 in the series on Saccharomyces cerevisiae [1] (setting [9]) and 0.45987 ± 0.00039 in the series with Saccharomyces cerevisiae [2].
For VVRYGGVIAFRG, the protein stability index with Saccharomyces cerevisiae [1] (setting [3]) came to 0.841 ± 0.065; in the series with Saccharomyces cerevisiae [1] (setting [4]), 0.641 ± 0.085; in the series with Saccharomyces cerevisiae [1] (setting [5]), 0.547 ± 0.017; in the series on Saccharomyces cerevisiae [1] (setting [6]), 0.725 ± 0.029; with Saccharomyces cerevisiae [1] (setting [7]), 0.579 ± 0.072; with Saccharomyces cerevisiae [1] (setting [8]), 0.691 ± 0.13. Also, the protein stability index in the series with Saccharomyces cerevisiae [1] (setting [9]) stood at 0.684 ± 0.13; in the series on Saccharomyces cerevisiae [2], 0.596 ± 0.24.
As to VVWCLLARVLLV, the protein stability index amounted to 0.332 ± 0.017 in the series with Saccharomyces cerevisiae [1] (setting [3]); 0.4 ± 0.02 with Saccharomyces cerevisiae [1] (setting [4]); 0.306 ± 0.036 with Saccharomyces cerevisiae [1] (setting [5]); 0.46657 ± 0.00033 in the series with Saccharomyces cerevisiae [1] (setting [6]); 0.1578 ± 0.00094 in the series with Saccharomyces cerevisiae [1] (setting [7]); 0.167 ± 0.019 with Saccharomyces cerevisiae [1] (setting [8]). The values for the protein stability index with Saccharomyces cerevisiae [1] (setting [9]) and in the series on Saccharomyces cerevisiae [2] were 0.243 ± 0.011 and 0.218 ± 0.026, respectively.
With VWICPTLFLLFS, the protein stability index in the series with Saccharomyces cerevisiae [1] (setting [3]) was 0.486 ± 0.03; in the series with Saccharomyces cerevisiae [1] (setting [4]), 0.509 ± 0.0088; in the series with Saccharomyces cerevisiae [1] (setting [5]), 0.369 ± 0.05; with Saccharomyces cerevisiae [1] (setting [6]) it was 0.544 ± 0.013; in the series with Saccharomyces cerevisiae [1] (setting [7]), 0.45736 ± 0.00021; in the series on Saccharomyces cerevisiae [1] (setting [8]), 0.374 ± 0.018. For the same sequence, the protein stability index with Saccharomyces cerevisiae [1] (setting [9]) is 0.529 ± 0.0063; in the series with Saccharomyces cerevisiae [2], 0.455 ± 0.014.
Consider VYDVSVGVAVVG, for which the protein stability index with Saccharomyces cerevisiae [1] (setting [3]) turned out to be 0.44 ± 0.018; in the series with Saccharomyces cerevisiae [1] (setting [4]), 0.464 ± 0.041; with Saccharomyces cerevisiae [1] (setting [5]) it was 0.34 ± 0.037; in the series with Saccharomyces cerevisiae [1] (setting [6]), 0.5196 ± 0.0031; in the series with Saccharomyces cerevisiae [1] (setting [7]), 0.291 ± 0.017; in the series on Saccharomyces cerevisiae [1] (setting [8]) it was 0.346 ± 0.025. The protein stability index with Saccharomyces cerevisiae [1] (setting [9]) was 0.48822 ± 0.00017; in the series on Saccharomyces cerevisiae [2] it was 0.4567 ± 0.002.
For the sequence VYKSTHKIYILT, the protein stability index with Saccharomyces cerevisiae [1] (setting [3]) was determined as 0.609 ± 0.011; with Saccharomyces cerevisiae [1] (setting [4]), 0.729 ± 0.023; in the series with Saccharomyces cerevisiae [1] (setting [5]), 0.53 ± 0.011; with Saccharomyces cerevisiae [1] (setting [6]) it was 0.6774 ± 0.0066; in the series on Saccharomyces cerevisiae [1] (setting [7]), 0.318 ± 0.0091; in the series on Saccharomyces cerevisiae [1] (setting [8]), 0.364 ± 0.028. Further, the results for the protein stability index in the series with Saccharomyces cerevisiae [1] (setting [9]) and in the series on Saccharomyces cerevisiae [2] were 0.5493 ± 0.0012 and 0.45 ± 0.022, respectively.
As for VYQAFIFRMSLF, the protein stability index came out at 0.529 ± 0.026 in the series with Saccharomyces cerevisiae [1] (setting [3]); 0.672 ± 0.0078 with Saccharomyces cerevisiae [1] (setting [4]); 0.586 ± 0.019 in the series on Saccharomyces cerevisiae [1] (setting [5]); 0.695 ± 0.016 with Saccharomyces cerevisiae [1] (setting [6]); 0.147 ± 0.0025 in the series with Saccharomyces cerevisiae [1] (setting [7]); 0.159 ± 0.02 in the series with Saccharomyces cerevisiae [1] (setting [8]). Besides, the protein stability index is 0.248 ± 0.0046 in the series with Saccharomyces cerevisiae [1] (setting [9]) and 0.243 ± 0.068 with Saccharomyces cerevisiae [2].
VYRVTGSWLMWV: the protein stability index stood at 0.511 ± 0.059 in the series with Saccharomyces cerevisiae [1] (setting [3]); 0.5758 ± 0.0051 with Saccharomyces cerevisiae [1] (setting [4]); 0.483 ± 0.021 in the series with Saccharomyces cerevisiae [1] (setting [5]); 0.527 ± 0.0078 in the series with Saccharomyces cerevisiae [1] (setting [6]); 0.353 ± 0.03 in the series on Saccharomyces cerevisiae [1] (setting [7]); 0.357 ± 0.019 with Saccharomyces cerevisiae [1] (setting [8]). Moreover, the protein stability index with Saccharomyces cerevisiae [1] (setting [9]) was 0.4879 ± 0.0027; in the series on Saccharomyces cerevisiae [2], 0.434 ± 0.007.
For the sequence VYTVGFVCWLVY, the protein stability index in the series on Saccharomyces cerevisiae [1] (setting [3]) worked out at 0.203 ± 0.0067; with Saccharomyces cerevisiae [1] (setting [4]) it was 0.27 ± 0.013; with Saccharomyces cerevisiae [1] (setting [5]), 0.208 ± 0.021; in the series on Saccharomyces cerevisiae [1] (setting [6]), 0.3458 ± 0.0024; in the series with Saccharomyces cerevisiae [1] (setting [7]) it was 0.185 ± 0.014; in the series with Saccharomyces cerevisiae [1] (setting [8]), 0.176 ± 0.025. Moreover, the results for the protein stability index in the series with Saccharomyces cerevisiae [1] (setting [9]) and in the series with Saccharomyces cerevisiae [2] were 0.323 ± 0.016 and 0.316 ± 0.026, respectively.
For the sequence VYWRGLHLQRLL, the protein stability index with Saccharomyces cerevisiae [1] (setting [3]) amounted to 0.681 ± 0.036; in the series with Saccharomyces cerevisiae [1] (setting [4]), 0.7679 ± 0.0013; with Saccharomyces cerevisiae [1] (setting [5]), 0.652 ± 0.033; in the series on Saccharomyces cerevisiae [1] (setting [6]), 0.775 ± 0.024; in the series on Saccharomyces cerevisiae [1] (setting [7]) it was 0.26 ± 0.0053; in the series on Saccharomyces cerevisiae [1] (setting [8]), 0.29 ± 0.028. Moreover, the protein stability index in the series on Saccharomyces cerevisiae [1] (setting [9]) came to 0.4753 ± 0.0016; in the series on Saccharomyces cerevisiae [2] it was 0.418 ± 0.05.
As to WALWGFVFWDWW, the protein stability index in the series on Saccharomyces cerevisiae [1] (setting [3]) worked out at 0.402 ± 0.049; with Saccharomyces cerevisiae [1] (setting [4]), 0.476 ± 0.016; in the series on Saccharomyces cerevisiae [1] (setting [5]), 0.377 ± 0.035; in the series with Saccharomyces cerevisiae [1] (setting [6]) it was 0.5133 ± 0.0029; in the series on Saccharomyces cerevisiae [1] (setting [7]) it was 0.3786 ± 0.0011; with Saccharomyces cerevisiae [1] (setting [8]), 0.365 ± 0.023. Moreover, the protein stability index in the series with Saccharomyces cerevisiae [1] (setting [9]) was found to be 0.501 ± 0.0078; in the series on Saccharomyces cerevisiae [2] it was 0.497 ± 0.03.
With WCGLFCRSVFVV, the protein stability index in the series on Saccharomyces cerevisiae [1] (setting [3]) was found to be 0.28221 ± 0.00025; in the series with Saccharomyces cerevisiae [1] (setting [4]), 0.363 ± 0.0043; in the series with Saccharomyces cerevisiae [1] (setting [5]) it was 0.263 ± 0.033; in the series with Saccharomyces cerevisiae [1] (setting [6]) it was 0.406 ± 0.0015; in the series with Saccharomyces cerevisiae [1] (setting [7]), 0.0996 ± 0.0021; in the series with Saccharomyces cerevisiae [1] (setting [8]), 0.11 ± 0.023. The figures for the protein stability index in the series with Saccharomyces cerevisiae [1] (setting [9]) and in the series with Saccharomyces cerevisiae [2] were 0.108 ± 0.0023 and 0.158 ± 0.072, respectively.
As for WDEVVAIVVCPV, the protein stability index in the series with Saccharomyces cerevisiae [1] (setting [3]) is 0.436 ± 0.016; in the series with Saccharomyces cerevisiae [1] (setting [4]) it was 0.421 ± 0.0076; in the series with Saccharomyces cerevisiae [1] (setting [5]) it was 0.293 ± 0.036; in the series on Saccharomyces cerevisiae [1] (setting [6]), 0.493 ± 0.012; in the series on Saccharomyces cerevisiae [1] (setting [7]), 0.242 ± 0.0082; in the series with Saccharomyces cerevisiae [1] (setting [8]), 0.3 ± 0.016. The protein stability index in the series with Saccharomyces cerevisiae [1] (setting [9]) was determined as 0.457 ± 0.015; in the series with Saccharomyces cerevisiae [2], 0.39 ± 0.023.
For WFALFYFLVSAF, the protein stability index was 0.189 ± 0.019 in the series on Saccharomyces cerevisiae [1] (setting [3]); 0.257 ± 0.01 in the series on Saccharomyces cerevisiae [1] (setting [4]); 0.205 ± 0.036 with Saccharomyces cerevisiae [1] (setting [5]); 0.316 ± 0.0074 in the series with Saccharomyces cerevisiae [1] (setting [6]); 0.157 ± 0.008 in the series on Saccharomyces cerevisiae [1] (setting [7]); 0.187 ± 0.0045 in the series with Saccharomyces cerevisiae [1] (setting [8]). Besides, the values for the protein stability index in the series with Saccharomyces cerevisiae [1] (setting [9]) and in the series on Saccharomyces cerevisiae [2] were 0.254 ± 0.0038 and 0.266 ± 0.011, respectively.
Regarding WFCYFSLYVFLL, the protein stability index was 0.0995 ± 0.02 in the series with Saccharomyces cerevisiae [1] (setting [3]); 0.149 ± 0.0067 in the series with Saccharomyces cerevisiae [1] (setting [4]); 0.168 ± 0.027 with Saccharomyces cerevisiae [1] (setting [5]); 0.24 ± 0.0052 in the series on Saccharomyces cerevisiae [1] (setting [6]); 0.133 ± 0.012 with Saccharomyces cerevisiae [1] (setting [7]); 0.105 ± 0.019 in the series with Saccharomyces cerevisiae [1] (setting [8]). Further, the protein stability index with Saccharomyces cerevisiae [1] (setting [9]) turned out to be 0.153 ± 0.026; in the series with Saccharomyces cerevisiae [2] it was 0.214 ± 0.095.
In the case of WFFRCLFLLSLF, the protein stability index is 0.457 ± 0.0083 in the series on Saccharomyces cerevisiae [1] (setting [3]); 0.544 ± 0.028 in the series on Saccharomyces cerevisiae [1] (setting [4]); 0.517 ± 0.019 in the series on Saccharomyces cerevisiae [1] (setting [5]); 0.601 ± 0.011 with Saccharomyces cerevisiae [1] (setting [6]); 0.188 ± 0.015 in the series with Saccharomyces cerevisiae [1] (setting [7]); 0.178 ± 0.026 with Saccharomyces cerevisiae [1] (setting [8]). Moreover, the results for the protein stability index with Saccharomyces cerevisiae [1] (setting [9]) and with Saccharomyces cerevisiae [2] were 0.23 ± 0.025 and 0.202 ± 0.034, respectively.
